Source: patent US20180009871A1 (INTARCIA THERAPEUTICS, published 2018)
Where no end group is shown, it is not given here. [ ]: non-standard residue; d: D form. Aib = CC(C)(N)C(=O)O

Legend:
[1] = molecular target: human GLP-1 receptor (GLP-1R) (human, UniProt P43220 24-463); test: cell-based or functional assay
[2] = molecular target: human glucagon receptor (GCGR) (human, UniProt P47871 26-477); test: cell-based or functional assay

human GLP-1 receptor (GLP-1R), sequence (P43220 24-463): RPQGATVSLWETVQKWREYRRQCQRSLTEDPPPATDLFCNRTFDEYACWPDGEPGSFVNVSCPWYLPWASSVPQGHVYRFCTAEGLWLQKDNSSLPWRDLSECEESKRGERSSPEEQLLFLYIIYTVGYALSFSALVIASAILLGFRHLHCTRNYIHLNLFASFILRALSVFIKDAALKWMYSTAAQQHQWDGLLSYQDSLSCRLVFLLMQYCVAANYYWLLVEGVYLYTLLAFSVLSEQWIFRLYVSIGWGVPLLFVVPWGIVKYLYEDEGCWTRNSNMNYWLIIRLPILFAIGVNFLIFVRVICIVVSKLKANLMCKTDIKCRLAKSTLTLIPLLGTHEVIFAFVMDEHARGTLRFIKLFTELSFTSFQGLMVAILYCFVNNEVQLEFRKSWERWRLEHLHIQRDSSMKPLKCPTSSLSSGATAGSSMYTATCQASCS

| Binder | hGLP1 pEC50 (cAMP) [1] [pEC50] | hGCGR pEC50 (cAMP) [2] [pEC50] |
| --- | --- | --- |
| YSHGTFTSDYSKYLD[Aib]ERAQEFV[Aib]WLEDEPSSGAPPPS-OH (N-terminus assumed; SMILES CC(C)C[C@H](NC(=O)[C@H](Cc1ccc(O)cc1)NC(=O)[C@H](CCCCN)NC(=O)[C@H](CO)NC(=O)[C@H](Cc1ccc(O)cc1)NC(=O)[C@H](CC(=O)O)NC(=O)[C@H](CO)NC(=O)[C@@H](NC(=O)[C@H](Cc1ccccc1)NC(=O)[C@@H](NC(=O)CNC(=O)[C@H](Cc1c[nH]cn1)NC(=O)[C@H](CO)NC(=O)[C@@H](N)Cc1ccc(O)cc1)[C@@H](C)O)[C@@H](C)O)C(=O)N[C@@H](CC(=O)O)C(=O)NC(C)(C)C(=O)N[C@@H](CCC(=O)O)C(=O)N[C@@H](CCCNC(=N)N)C(=O)N[C@@H](C)C(=O)N[C@@H](CCC(N)=O)C(=O)N[C@@H](CCC(=O)O)C(=O)N[C@@H](Cc1ccccc1)C(=O)N[C@H](C(=O)NC(C)(C)C(=O)N[C@@H](Cc1c[nH]c2ccccc12)C(=O)N[C@@H](CC(C)C)C(=O)N[C@@H](CCC(=O)O)C(=O)N[C@@H](CC(=O)O)C(=O)N[C@@H](CCC(=O)O)C(=O)N1CCC[C@H]1C(=O)N[C@@H](CO)C(=O)N[C@@H](CO)C(=O)NCC(=O)N[C@@H](C)C(=O)N1CCC[C@H]1C(=O)N1CCC[C@H]1C(=O)N1CCC[C@H]1C(=O)N[C@@H](CO)C(=O)O)C(C)C) [Compound A17] | < 9 | 11.1 |
| YSHGTFTSDYSKYLD[Aib]KRAQEFV[Aib]WLEDESSGAPPPS-OH (N-terminus assumed; SMILES CC(C)C[C@H](NC(=O)[C@H](Cc1ccc(O)cc1)NC(=O)[C@H](CCCCN)NC(=O)[C@H](CO)NC(=O)[C@H](Cc1ccc(O)cc1)NC(=O)[C@H](CC(=O)O)NC(=O)[C@H](CO)NC(=O)[C@@H](NC(=O)[C@H](Cc1ccccc1)NC(=O)[C@@H](NC(=O)CNC(=O)[C@H](Cc1c[nH]cn1)NC(=O)[C@H](CO)NC(=O)[C@@H](N)Cc1ccc(O)cc1)[C@@H](C)O)[C@@H](C)O)C(=O)N[C@@H](CC(=O)O)C(=O)NC(C)(C)C(=O)N[C@@H](CCCCN)C(=O)N[C@@H](CCCNC(=N)N)C(=O)N[C@@H](C)C(=O)N[C@@H](CCC(N)=O)C(=O)N[C@@H](CCC(=O)O)C(=O)N[C@@H](Cc1ccccc1)C(=O)N[C@H](C(=O)NC(C)(C)C(=O)N[C@@H](Cc1c[nH]c2ccccc12)C(=O)N[C@@H](CC(C)C)C(=O)N[C@@H](CCC(=O)O)C(=O)N[C@@H](CC(=O)O)C(=O)N[C@@H](CCC(=O)O)C(=O)N[C@@H](CO)C(=O)N[C@@H](CO)C(=O)NCC(=O)N[C@@H](C)C(=O)N1CCC[C@H]1C(=O)N1CCC[C@H]1C(=O)N1CCC[C@H]1C(=O)N[C@@H](CO)C(=O)O)C(C)C) [Compound A14] | < 9 | 12 |
| YSHGTFTSDYSKYLD[Aib]SRAQEFV[Aib]WLEDEPSSGAPPPS-OH (N-terminus assumed; SMILES CC(C)C[C@H](NC(=O)[C@H](Cc1ccc(O)cc1)NC(=O)[C@H](CCCCN)NC(=O)[C@H](CO)NC(=O)[C@H](Cc1ccc(O)cc1)NC(=O)[C@H](CC(=O)O)NC(=O)[C@H](CO)NC(=O)[C@@H](NC(=O)[C@H](Cc1ccccc1)NC(=O)[C@@H](NC(=O)CNC(=O)[C@H](Cc1c[nH]cn1)NC(=O)[C@H](CO)NC(=O)[C@@H](N)Cc1ccc(O)cc1)[C@@H](C)O)[C@@H](C)O)C(=O)N[C@@H](CC(=O)O)C(=O)NC(C)(C)C(=O)N[C@@H](CO)C(=O)N[C@@H](CCCNC(=N)N)C(=O)N[C@@H](C)C(=O)N[C@@H](CCC(N)=O)C(=O)N[C@@H](CCC(=O)O)C(=O)N[C@@H](Cc1ccccc1)C(=O)N[C@H](C(=O)NC(C)(C)C(=O)N[C@@H](Cc1c[nH]c2ccccc12)C(=O)N[C@@H](CC(C)C)C(=O)N[C@@H](CCC(=O)O)C(=O)N[C@@H](CC(=O)O)C(=O)N[C@@H](CCC(=O)O)C(=O)N1CCC[C@H]1C(=O)N[C@@H](CO)C(=O)N[C@@H](CO)C(=O)NCC(=O)N[C@@H](C)C(=O)N1CCC[C@H]1C(=O)N1CCC[C@H]1C(=O)N1CCC[C@H]1C(=O)N[C@@H](CO)C(=O)O)C(C)C) [Compound A15] | < 9 | 11.4 |
| YSHGTFTSDYSKWLD[Aib]SRAQEFV[Aib]WLEDEPSSGAPPPS-OH (N-terminus assumed; SMILES CC(C)C[C@H](NC(=O)[C@H](Cc1c[nH]c2ccccc12)NC(=O)[C@H](CCCCN)NC(=O)[C@H](CO)NC(=O)[C@H](Cc1ccc(O)cc1)NC(=O)[C@H](CC(=O)O)NC(=O)[C@H](CO)NC(=O)[C@@H](NC(=O)[C@H](Cc1ccccc1)NC(=O)[C@@H](NC(=O)CNC(=O)[C@H](Cc1c[nH]cn1)NC(=O)[C@H](CO)NC(=O)[C@@H](N)Cc1ccc(O)cc1)[C@@H](C)O)[C@@H](C)O)C(=O)N[C@@H](CC(=O)O)C(=O)NC(C)(C)C(=O)N[C@@H](CO)C(=O)N[C@@H](CCCNC(=N)N)C(=O)N[C@@H](C)C(=O)N[C@@H](CCC(N)=O)C(=O)N[C@@H](CCC(=O)O)C(=O)N[C@@H](Cc1ccccc1)C(=O)N[C@H](C(=O)NC(C)(C)C(=O)N[C@@H](Cc1c[nH]c2ccccc12)C(=O)N[C@@H](CC(C)C)C(=O)N[C@@H](CCC(=O)O)C(=O)N[C@@H](CC(=O)O)C(=O)N[C@@H](CCC(=O)O)C(=O)N1CCC[C@H]1C(=O)N[C@@H](CO)C(=O)N[C@@H](CO)C(=O)NCC(=O)N[C@@H](C)C(=O)N1CCC[C@H]1C(=O)N1CCC[C@H]1C(=O)N1CCC[C@H]1C(=O)N[C@@H](CO)C(=O)O)C(C)C) [Compound A19] | < 9 | 11 |
| YSHGTFTSDYSKYLD[Aib]TRAQEFV[Aib]WLEDEPSSGAPPPS-OH (N-terminus assumed; SMILES CC(C)C[C@H](NC(=O)[C@H](Cc1ccc(O)cc1)NC(=O)[C@H](CCCCN)NC(=O)[C@H](CO)NC(=O)[C@H](Cc1ccc(O)cc1)NC(=O)[C@H](CC(=O)O)NC(=O)[C@H](CO)NC(=O)[C@@H](NC(=O)[C@H](Cc1ccccc1)NC(=O)[C@@H](NC(=O)CNC(=O)[C@H](Cc1c[nH]cn1)NC(=O)[C@H](CO)NC(=O)[C@@H](N)Cc1ccc(O)cc1)[C@@H](C)O)[C@@H](C)O)C(=O)N[C@@H](CC(=O)O)C(=O)NC(C)(C)C(=O)N[C@H](C(=O)N[C@@H](CCCNC(=N)N)C(=O)N[C@@H](C)C(=O)N[C@@H](CCC(N)=O)C(=O)N[C@@H](CCC(=O)O)C(=O)N[C@@H](Cc1ccccc1)C(=O)N[C@H](C(=O)NC(C)(C)C(=O)N[C@@H](Cc1c[nH]c2ccccc12)C(=O)N[C@@H](CC(C)C)C(=O)N[C@@H](CCC(=O)O)C(=O)N[C@@H](CC(=O)O)C(=O)N[C@@H](CCC(=O)O)C(=O)N1CCC[C@H]1C(=O)N[C@@H](CO)C(=O)N[C@@H](CO)C(=O)NCC(=O)N[C@@H](C)C(=O)N1CCC[C@H]1C(=O)N1CCC[C@H]1C(=O)N1CCC[C@H]1C(=O)N[C@@H](CO)C(=O)O)C(C)C)[C@@H](C)O) [Compound A16] | < 9 | 11.9 |
| YSHGTFTSDYSKYLD[Aib]KRAQEFV[Aib]WLEDESGAPPPS-OH (N-terminus assumed; SMILES CC(C)C[C@H](NC(=O)[C@H](Cc1ccc(O)cc1)NC(=O)[C@H](CCCCN)NC(=O)[C@H](CO)NC(=O)[C@H](Cc1ccc(O)cc1)NC(=O)[C@H](CC(=O)O)NC(=O)[C@H](CO)NC(=O)[C@@H](NC(=O)[C@H](Cc1ccccc1)NC(=O)[C@@H](NC(=O)CNC(=O)[C@H](Cc1c[nH]cn1)NC(=O)[C@H](CO)NC(=O)[C@@H](N)Cc1ccc(O)cc1)[C@@H](C)O)[C@@H](C)O)C(=O)N[C@@H](CC(=O)O)C(=O)NC(C)(C)C(=O)N[C@@H](CCCCN)C(=O)N[C@@H](CCCNC(=N)N)C(=O)N[C@@H](C)C(=O)N[C@@H](CCC(N)=O)C(=O)N[C@@H](CCC(=O)O)C(=O)N[C@@H](Cc1ccccc1)C(=O)N[C@H](C(=O)NC(C)(C)C(=O)N[C@@H](Cc1c[nH]c2ccccc12)C(=O)N[C@@H](CC(C)C)C(=O)N[C@@H](CCC(=O)O)C(=O)N[C@@H](CC(=O)O)C(=O)N[C@@H](CCC(=O)O)C(=O)N[C@@H](CO)C(=O)NCC(=O)N[C@@H](C)C(=O)N1CCC[C@H]1C(=O)N1CCC[C@H]1C(=O)N1CCC[C@H]1C(=O)N[C@@H](CO)C(=O)O)C(C)C) [Compound A13] | < 9 | 12.3 |
| YSHGTFTSDYSKWLD[Aib]ARAQEFV[Aib]WLEDEPSSGAPPPS-OH (N-terminus assumed; SMILES CC(C)C[C@H](NC(=O)[C@H](Cc1c[nH]c2ccccc12)NC(=O)[C@H](CCCCN)NC(=O)[C@H](CO)NC(=O)[C@H](Cc1ccc(O)cc1)NC(=O)[C@H](CC(=O)O)NC(=O)[C@H](CO)NC(=O)[C@@H](NC(=O)[C@H](Cc1ccccc1)NC(=O)[C@@H](NC(=O)CNC(=O)[C@H](Cc1c[nH]cn1)NC(=O)[C@H](CO)NC(=O)[C@@H](N)Cc1ccc(O)cc1)[C@@H](C)O)[C@@H](C)O)C(=O)N[C@@H](CC(=O)O)C(=O)NC(C)(C)C(=O)N[C@@H](C)C(=O)N[C@@H](CCCNC(=N)N)C(=O)N[C@@H](C)C(=O)N[C@@H](CCC(N)=O)C(=O)N[C@@H](CCC(=O)O)C(=O)N[C@@H](Cc1ccccc1)C(=O)N[C@H](C(=O)NC(C)(C)C(=O)N[C@@H](Cc1c[nH]c2ccccc12)C(=O)N[C@@H](CC(C)C)C(=O)N[C@@H](CCC(=O)O)C(=O)N[C@@H](CC(=O)O)C(=O)N[C@@H](CCC(=O)O)C(=O)N1CCC[C@H]1C(=O)N[C@@H](CO)C(=O)N[C@@H](CO)C(=O)NCC(=O)N[C@@H](C)C(=O)N1CCC[C@H]1C(=O)N1CCC[C@H]1C(=O)N1CCC[C@H]1C(=O)N[C@@H](CO)C(=O)O)C(C)C) [Compound A18] | < 9 | 12.4 |
